Measurements taken from the supplement of paper PMC10567573.

B1: KRT13 (parent)
chain: KTIEELRDKILTATIENNRVILEI
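Also: lentivirally expressed fusions sorted by FACS into six bins by GFP to DsRed ratio, PSI derived from sequencing read proportions per bin multiplied by bin number.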

Variants of: B1
Assay: protein stability index of a GFP-peptide fusion (GPS, HEK-293T) (PSI 1-6); higher = more stable
Details: c terminus: a fixed tail appended
Variant KTIEELRDKILTATIEDNRVILEI has a protein stability index of 2.84.
With KTIEELRDKILTATIETNRVILEI the protein stability index was 3.19.
In the case of KTIEELRDKILTATIEKNRVILEI, the protein stability index is reported as 2.4.
For KTIEELRDKILTATIEQNRVILEI, the protein stability index was 3.06.
For KTIEELRDKILTATIEPNRVILEI, the protein stability index was 3.1.
With KTIEELRDKILTATIEINRVILEI the protein stability index was 1.73.
KTIEELRDKILTATIEENRVILEI showed a protein stability index of 2.73.
In the case of KTIEELRDKILTATIEVNRVILEI, the protein stability index is reported as 1.59.
KTIEELRDKILTATIELNRVILEI gave a protein stability index of 1.78.
In the case of KTIEELRDKILTATIEMNRVILEI, the protein stability index is reported as 2.57.
Work on KTIEELRDKILTATIEGNRVILEI yielded a protein stability index of 3.5.
For KTIEELRDKILTATIECNRVILEI, the protein stability index was 3.65.
For KTIEELRDKILTATICNNRVILEI, the protein stability index was 2.33.
With KTIEELRDKILTATIWNNRVILEI the protein stability index was 3.31.
In the case of KTIEELRDKILTATIANNRVILEI, the protein stability index is reported as 3.13.
Variant KTIEELRDKILTATISNNRVILEI has a protein stability index of 2.3.
For KTIEELRDKILTATIDNNRVILEI, the protein stability index was 3.13.
With KTIEELRDKILTATIGNNRVILEI the protein stability index was 2.38.
Work on KTIEELRDKILTATILNNRVILEI yielded a protein stability index of 3.35.
For KTIEELRDKILTATIQNNRVILEI, the protein stability index was 3.1.
Variant KTIEELRDKILTATIFNNRVILEI has a protein stability index of 3.08.
In the case of KTIEELRDKILTATIYNNRVILEI, the protein stability index is reported as 1.32.
KTIEELRDKILTATIHNNRVILEI showed a protein stability index of 2.52.
In the case of KTIEELRDKILTATIMNNRVILEI, the protein stability index is reported as 2.72.
With KTIEELRDKILTATIVNNRVILEI the protein stability index was 2.8.
KTIEELRDKWLTATIENNRVILEI showed a protein stability index of 3.93.
In the case of KTIEELRDKDLTATIENNRVILEI, the protein stability index is reported as 1.73.
With KTIEELRDKCLTATIENNRVILEI the protein stability index was 2.28.
In the case of KTIEELRDKYLTATIENNRVILEI, the protein stability index is reported as 3.2.
KTIEELRDKHLTATIENNRVILEI gave a protein stability index of 2.12.
In the case of KTIEELRDKMLTATIENNRVILEI, the protein stability index is reported as 2.3.
In the case of KTIEELRDKRLTATIENNRVILEI, the protein stability index is reported as 2.31.
KTIEELRDKTLTATIENNRVILEI gave a protein stability index of 1.43.
Variant KTIEELRDKVLTATIENNRVILEI has a protein stability index of 1.75.
With KTIEELRDKALTATIENNRVILEI the protein stability index was 2.17.
With KTIEELRDKQLTATIENNRVILEI the protein stability index was 1.54.
Work on KTIEELRDKGLTATIENNRVILEI yielded a protein stability index of 1.69.
With KTIEELRDKFLTATIENNRVILEI the protein stability index was 3.07.
Work on KTIEELRDKLLTATIENNRVILEI yielded a protein stability index of 1.47.
KTIEELRDKPLTATIENNRVILEI gave a protein stability index of 2.7.
Variant KTIEELRDKNLTATIENNRVILEI has a protein stability index of 1.78.
Variant KTIEELRDKKLTATIENNRVILEI has a protein stability index of 1.55.
KTIEELRDKELTATIENNRVILEI showed a protein stability index of 2.
KTIEELRDKSLTATIENNRVILEI gave a protein stability index of 2.2.
KTIEELRDKILTATIENGRVILEI gave a protein stability index of 2.33.
KTIEELRDKILTATIENHRVILEI gave a protein stability index of 2.65.
KTIEELRDKILTATIENDRVILEI showed a protein stability index of 2.18.
KTIEELRDKILTATIENRRVILEI showed a protein stability index of 3.44.
KTIEELRDKILTATIENPRVILEI gave a protein stability index of 3.68.
With KTIEELRDKILTATIENSRVILEI the protein stability index was 2.99.
KTIEELRDKILTATIENWRVILEI showed a protein stability index of 1.96.
In the case of KTIEELRDKILTATIENERVILEI, the protein stability index is reported as 3.06.
For KTIEELRDKILTATIENIRVILEI, the protein stability index was 2.9.
With KTIEELRDKILTATIENYRVILEI the protein stability index was 2.01.
In the case of KTIEELRDKILTATIENKRVILEI, the protein stability index is reported as 3.44.
KTIEELRDKILTATDENNRVILEI showed a protein stability index of 1.75.
For KTIEELRDKILTATNENNRVILEI, the protein stability index was 2.98.
In the case of KTIEELRDKILTATQENNRVILEI, the protein stability index is reported as 2.07.
With KTIEELRDKILTATFENNRVILEI the protein stability index was 1.08.
For KTIEELRDKILTATGENNRVILEI, the protein stability index was 2.77.
KTIEELRDKILTATAENNRVILEI gave a protein stability index of 1.66.
For KTIEELRDKILTATTENNRVILEI, the protein stability index was 2.6.
For KTIEELRDKILTATPENNRVILEI, the protein stability index was 2.17.
Variant KTIEELRDKILTATKENNRVILEI has a protein stability index of 3.7.
KTIEELRDKILTATSENNRVILEI showed a protein stability index of 2.17.
With KTIEELRDKILTATEENNRVILEI the protein stability index was 1.69.
Work on KTIEELRDKILTATLENNRVILEI yielded a protein stability index of 2.31.
KTIEELRDKILQATIENNRVILEI gave a protein stability index of 2.65.
Work on KTIEELRDKILYATIENNRVILEI yielded a protein stability index of 3.8.
Variant KTIEELRDKILIATIENNRVILEI has a protein stability index of 3.39.
With KTIEELRDKILPATIENNRVILEI the protein stability index was 2.42.
Variant KTIEELRDKILRATIENNRVILEI has a protein stability index of 1.88.
For KTIEELRDKILGATIENNRVILEI, the protein stability index was 1.59.
For KTIEELRDKILNATIENNRVILEI, the protein stability index was 2.83.
Variant KTIEELRDKILDATIENNRVILEI has a protein stability index of 1.76.
In the case of KTIEELRDKILVATIENNRVILEI, the protein stability index is reported as 3.5.
Work on KTIEELRDKILHATIENNRVILEI yielded a protein stability index of 2.66.
With KTIEELRDKILAATIENNRVILEI the protein stability index was 2.5.
Variant KTIEELRDKILTAMIENNRVILEI has a protein stability index of 2.52.
Variant KTIEELRDKILTAHIENNRVILEI has a protein stability index of 2.53.
KTIEELRDKILTARIENNRVILEI showed a protein stability index of 2.59.
In the case of KTIEELRDKILTAEIENNRVILEI, the protein stability index is reported as 2.77.
KTIEELRDKILTADIENNRVILEI showed a protein stability index of 2.57.
KTIEELRDKILTAVIENNRVILEI gave a protein stability index of 1.02.
KTIEELRDKILTAGIENNRVILEI gave a protein stability index of 4.63.
In the case of KTIEELRDKILTAAIENNRVILEI, the protein stability index is reported as 4.11.
With KTIEELRDKILTALIENNRVILEI the protein stability index was 1.71.
With KTIEELRDKILTAQIENNRVILEI the protein stability index was 2.99.
KTIEELRDKILTAPIENNRVILEI showed a protein stability index of 2.52.
Variant KTIEELRDKILTANIENNRVILEI has a protein stability index of 3.03.
KTIEELRDKILTACIENNRVILEI gave a protein stability index of 3.4.
For KTIEELRDKILTGTIENNRVILEI, the protein stability index was 3.86.
Variant KTIEELRDKILTLTIENNRVILEI has a protein stability index of 2.61.
Variant KTIEELRDKILTCTIENNRVILEI has a protein stability index of 2.5.
